Blank lines part the entries; values can stand above or below the binder they belong to.
What was measured:
[1] = target: T1, human CD19 on Nalm6 B cells (human, UniProt P15391 20-556); experiment: flow cytometry on Nalm6 cells
T1 sequence: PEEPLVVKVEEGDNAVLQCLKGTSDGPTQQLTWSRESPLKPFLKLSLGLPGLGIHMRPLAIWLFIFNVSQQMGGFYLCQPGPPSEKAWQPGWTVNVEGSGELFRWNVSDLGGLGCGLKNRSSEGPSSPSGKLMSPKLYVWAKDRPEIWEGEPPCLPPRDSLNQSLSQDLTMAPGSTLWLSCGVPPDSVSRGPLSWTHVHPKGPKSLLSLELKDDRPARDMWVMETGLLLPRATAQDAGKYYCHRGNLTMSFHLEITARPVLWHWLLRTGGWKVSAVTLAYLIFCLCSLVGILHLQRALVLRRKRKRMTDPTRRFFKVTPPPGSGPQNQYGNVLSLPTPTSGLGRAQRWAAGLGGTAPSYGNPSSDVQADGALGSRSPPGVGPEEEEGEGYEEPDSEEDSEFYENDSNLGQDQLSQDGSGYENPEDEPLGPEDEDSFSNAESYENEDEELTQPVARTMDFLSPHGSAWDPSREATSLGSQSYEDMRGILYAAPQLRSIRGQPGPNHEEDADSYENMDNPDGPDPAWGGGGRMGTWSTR

[2] = target: T2, human CD28 expressed on cells (CHO-k1 stably overexpressing human CD28; T cells in functional assays) (human, UniProt P10747 19-220); experiment: flow cytometry on CHOk1-CD28 cells
T2 construct: also called CHO huCD28; CHOk1-CD28

[3] = target: T3, FcRn, biotinylated, coupled to streptavidin-sepharose (Homo sapiens (Human), UniProt P55899 24-297; P61769 21-119, The receptor is biotinylated and coupled to streptavidin-sepharose. The patent states neither the biotinylation site nor any tag.); experiment: FcRn affinity chromatography
T3 construct: also called FcRn-sepharose matrix; copies: 1 + 1

N(A2B2)A-avi-His = target: T4, N(A2B2)A-avi-His (human, biotinylated avi-tag); experiment: SPR ProteOn, purified Fab
T4 construct: also called biotinylated N(A2B2)A-avi-His
T4 chain: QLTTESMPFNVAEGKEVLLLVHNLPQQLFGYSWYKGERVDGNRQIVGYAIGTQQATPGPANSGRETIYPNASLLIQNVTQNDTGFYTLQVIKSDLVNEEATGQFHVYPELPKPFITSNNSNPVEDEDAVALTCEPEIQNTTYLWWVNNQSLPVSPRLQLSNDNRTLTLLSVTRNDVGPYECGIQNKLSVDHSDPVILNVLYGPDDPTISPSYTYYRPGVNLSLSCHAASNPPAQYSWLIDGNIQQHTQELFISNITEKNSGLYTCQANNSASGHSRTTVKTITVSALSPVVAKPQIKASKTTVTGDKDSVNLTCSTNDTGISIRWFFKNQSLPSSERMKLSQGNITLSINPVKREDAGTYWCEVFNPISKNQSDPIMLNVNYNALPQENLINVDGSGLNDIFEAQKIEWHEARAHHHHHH

[4] = target: T2, human CD28 expressed on cells (CHO-k1 …); experiment: cell-based or functional assay
[5] = target: T5, recombinant CD79b-His (Sinobiological #29750-H08H) (Homo sapiens (Human), UniProt P40259 29-159); experiment: SPR Biacore T200, CD79b-His captured by anti-penta-His
T5 construct: bought protein; also called soluble recombinant CD79b-His
T5 sequence: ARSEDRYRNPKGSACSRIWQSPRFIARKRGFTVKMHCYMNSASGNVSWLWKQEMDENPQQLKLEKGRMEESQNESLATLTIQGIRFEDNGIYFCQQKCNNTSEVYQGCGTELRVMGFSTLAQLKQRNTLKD

- EC50 [1]: 0.363 nM
- EC50 [2]: 150 nM
B2: Molecule 18D: CD19 (8B8-2B11)-CD28 (SA v11) 1+1 (bispecific antibody, human IgG1, kappa, L234A L235A)
heavy 1: not shown
heavy 2: DIVMTQTPLSLSVTPGQPASISCKSSQSLETSTGTTYLNWYLQKPGQSPQLLIYRVSKRFSGVPDRFSGSGSGTDFTLKISRVEAEDVGVYYCLQLLEDPYTFGQGTKLEIKSSASTKGPSVFPLAPSSKSTSGGTAALGCLVKDYFPEPVTVSWNSGALTSGVHTFPAVLQSSGLYSLSSVVTVPSSSLGTQTYICNVNHKPSNTKVDKKVEPKSCDKTHTCPPCPAPEAAGGPSVFLFPPKPKDTLMISRTPEVTCVVVDVSHEDPEVKFNWYVDGVEVHNAKTKPREEQYNSTYRVVSVLTVLHQDWLNGKEYKCKVSNKALGAPIEKTISKAKGQPREPQVCTLPPSRDELTKNQVSLSCAVKGFYPSDIAVEWESNGQPENNYKTTPPVLDSDGSFFLVSKLTVDKSRWQQGNVFSCSVMHEALHNHYTQKSLSLSP
light 1: not shown
light 2: QVQLVQSGAEVKKPGASVKVSCKASGYTFTDYIMHWVRQAPGQGLEWMGYINPYNDGSKYTEKFQGRVTMTSDTSISTAYMELSRLRSDDTAVYYCARGTYYYGPQLFDYWGQGTTVTVSSASVAAPSVFIFPPSDEQLKSGTASVVCLLNNFYPREAKVQWKVDNALQSGNSQESVTEQDSKDSTYSLSSTLTLSKADYEKHKVYACEVTHQGLSSPVTKSFNRGEC
notes: also called P1AF0377; CD19-CD28 v11

- EC50 [1]: 0.368 nM
- EC50 [2]: 10.8 nM
B3: Molecule 18E: CD19 (8B8-2B11)-CD28 (SA v27) 1+1 (bispecific antibody, human IgG1, kappa, L234A L235A)
heavy 1: not shown
heavy 2: B2 heavy 2
light 1: not shown
light 2: B2 light 2
notes: also called P1AF0378; CD19-CD28 v27

- EC50 [1]: 0.416 nM
- EC50 [2]: 15.6 nM
B4: Molecule 18B: CD19 (8B8-2B11)-CD28 (SA v15) 1+1 (bispecific antibody, human IgG1, kappa, L234A L235A)
heavy 1: not shown
heavy 2: B2 heavy 2
light 1: not shown
light 2: B2 light 2
notes: also called P1AE9040; CD19-CD28 v15

- EC50 [1]: 0.274 nM
- EC50 [2]: 6.65 nM
B5: Molecule 18A: CD19 (8B8-2B11)-CD28 (SA v29) 1+1 (bispecific antibody, human IgG1, kappa, L234A L235A)
heavy 1: not shown
heavy 2: B2 heavy 2
light 1: not shown
light 2: B2 light 2
notes: also called P1AE8002; CD19-CD28 v29

- FcRn affinity (relative retention time) [3]: 0.1
B9: Molecule 11C: CEA (A5H1EL1D)-CD28 (SA_Variant 15) 1+1 format (bispecific antibody, human IgG1, kappa, L234A L235A)
heavy 1: EIVLTQSPATLSLSPGERATLSCRASSSVTYIHWYQQKPGQAPRSWIYATSNLASGIPARFSGSGSGTDFTLTISSLEPEDFAVYYCQHWSSKPPTFGQGTKLEIKSSASTKGPSVFPLAPSSKSTSGGTAALGCLVKDYFPEPVTVSWNSGALTSGVHTFPAVLQSSGLYSLSSVVTVPSSSLGTQTYICNVNHKPSNTKVDKKVEPKSCDKTHTCPPCPAPEAAGGPSVFLFPPKPKDTLMISRTPEVTCVVVDVSHEDPEVKFNWYVDGVEVHNAKTKPREEQYNSTYRVVSVLTVLHQDWLNGKEYKCKVSNKALGAPIEKTISKAKGQPREPQVCTLPPSRDELTKNQVSLSCAVKGFYPSDIAVEWESNGQPENNYKTTPPVLDSDGSFFLVSKLTVDKSRWQQGNVFSCSVMHEALHNHYTQKSLSLSP
light 1: EVQLLESGGGLVQPGGSLRLSCAASGFTFTDYYMNWVRQAPGKGLEWLGFIGNKANAYTTEYSASVKGRFTISRDKSKNTLYLQMNSLRAEDTATYYCTRDRGLRFYFDYWGQGTTVTVSSASVAAPSVFIFPPSDEQLKSGTASVVCLLNNFYPREAKVQWKVDNALQSGNSQESVTEQDSKDSTYSLSSTLTLSKADYEKHKVYACEVTHQGLSSPVTKSFNRGEC
heavy 2: not shown
light 2: not shown
notes: also called P1AE4775; copies: 1 + 1 + 1 + 1

- Kd [5]: 76 nM
- koff [5]: 0.0195 s⁻¹
- kon [5]: 257000 M⁻¹ s⁻¹
B15: Molecule 18F: CD79b (huMA79b.v28)-CD28 (SA v15) 1+1 (bispecific antibody, human IgG1, kappa, L234A L235A)
heavy 1: not shown
heavy 2: DIQLTQSPSSLSASVGDRVTITCKASQSVDYEGDSFLNWYQQKPGKAPKLLIYAASNLESGVPSRFSGSGSGTDFTLTISSLQPEDFATYYCQQSNEDPLTFGQGTKVEIKSSASTKGPSVFPLAPSSKSTSGGTAALGCLVKDYFPEPVTVSWNSGALTSGVHTFPAVLQSSGLYSLSSVVTVPSSSLGTQTYICNVNHKPSNTKVDKKVEPKSCDKTHTCPPCPAPEAAGGPSVFLFPPKPKDTLMISRTPEVTCVVVDVSHEDPEVKFNWYVDGVEVHNAKTKPREEQYNSTYRVVSVLTVLHQDWLNGKEYKCKVSNKALGAPIEKTISKAKGQPREPQVCTLPPSRDELTKNQVSLSCAVKGFYPSDIAVEWESNGQPENNYKTTPPVLDSDGSFFLVSKLTVDKSRWQQGNVFSCSVMHEALHNHYTQKSLSLSP
light 1: not shown
light 2: EVQLVESGGGLVQPGGSLRLSCAASGYTFSSYWIEWVRQAPGKGLEWIGEILPGGGDTNYNEIFKGRATFSADTSKNTAYLQMNSLRAEDTAVYYCTRRVPIRLDYWGQGTLVTVSSASVAAPSVFIFPPSDEQLKSGTASVVCLLNNFYPREAKVQWKVDNALQSGNSQESVTEQDSKDSTYSLSSTLTLSKADYEKHKVYACEVTHQGLSSPVTKSFNRGEC
notes: also called P1AE9039; CD79b-CD28

Continued, binder first:

B1: Molecule 18C: CD19 (8B8-2B11)-CD28 (SA v8) 1+1 (bispecific antibody, human IgG1, kappa, L234A L235A)
heavy 1: not shown
heavy 2: B2 heavy 2
light 1: not shown
light 2: B2 light 2
notes: also called P1AF0175; CD19-CD28 v8
- EC50 [1]: 0.232 nM
- EC50 [2]: 232 nM

B6: Molecule 11D: CEA (A5H1EL1D)-CD28 (SA_Variant 29) 1+1 format (bispecific antibody, human IgG1, kappa, L234A L235A)
heavy 1: B9 heavy 1
light 1: B9 light 1
heavy 2: not shown
light 2: not shown
notes: also called P1AE4776; copies: 1 + 1 + 1 + 1
- FcRn affinity (relative retention time) [3]: 0.17

B7: Molecule 11B: CEA (A5H1EL1D)-CD28 (SA_Variant 8) 1+1 format (bispecific antibody, human IgG1, kappa, L234A L235A)
heavy 1: B9 heavy 1
light 1: B9 light 1
heavy 2: not shown
light 2: not shown
notes: also called P1AE4774; copies: 1 + 1 + 1 + 1
- FcRn affinity (relative retention time) [3]: 0.08

B8: Molecule 11A: CEA (A5H1EL1D)-CD28 (SA) 1+1 format (bispecific antibody, human IgG1, kappa, L234A L235A)
heavy 1: B9 heavy 1
light 1: B9 light 1
heavy 2: not shown
light 2: not shown
notes: also called P1AE4773; copies: 1 + 1 + 1 + 1
- FcRn affinity (relative retention time) [3]: 0.21

B10: P001.177 Fab fragment (Fab, V domains shown)
VH: EVQLLESGGGLVQPGGSLRLSCAASGFYFTDYYMNWVRQAPGKGLEWLGFISNKANAYTTEYSASVKGRFTISRDKSKNTLYLQMNSLRAEDTATYYCTRDRGLRFYFDYWGQGTTVTVSS
VL: EIVLTQSPATLSLSPGERATLSCRASSSVTYIHWYQQKPGQAPRSWIYATSNLASGIPARFSGSGSGTDFTLTISSLEPEDFAVYYCQHWSSKPPTFGQGTKLEIK
- koff (N(A2B2)A-avi-His): 0.000785 s⁻¹

B11: FAP (4B9) - CD28 (CD28(SA)_Variant 11) 1+1 (bispecific antibody, human IgG1, kappa, L234A L235A)
heavy 1: EIVLTQSPGTLSLSPGERATLSCRASQSVTSSYLAWYQQKPGQAPRLLINVGSRRATGIPDRFSGSGSGTDFTLTISRLEPEDFAVYYCQQGIMLPPTFGQGTKVEIKSSASTKGPSVFPLAPSSKSTSGGTAALGCLVKDYFPEPVTVSWNSGALTSGVHTFPAVLQSSGLYSLSSVVTVPSSSLGTQTYICNVNHKPSNTKVDKKVEPKSCDKTHTCPPCPAPEAAGGPSVFLFPPKPKDTLMISRTPEVTCVVVDVSHEDPEVKFNWYVDGVEVHNAKTKPREEQYNSTYRVVSVLTVLHQDWLNGKEYKCKVSNKALGAPIEKTISKAKGQPREPQVCTLPPSRDELTKNQVSLSCAVKGFYPSDIAVEWESNGQPENNYKTTPPVLDSDGSFFLVSKLTVDKSRWQQGNVFSCSVMHEALHNHYTQKSLSLSP
light 1: EVQLLESGGGLVQPGGSLRLSCAASGFTFSSYAMSWVRQAPGKGLEWVSAIIGSGASTYYADSVKGRFTISRDNSKNTLYLQMNSLRAEDTAVYYCAKGWFGGFNYWGQGTLVTVSSASVAAPSVFIFPPSDEQLKSGTASVVCLLNNFYPREAKVQWKVDNALQSGNSQESVTEQDSKDSTYSLSSTLTLSKADYEKHKVYACEVTHQGLSSPVTKSFNRGEC
heavy 2: not shown
light 2: not shown
- EC50 killing (nM), TCB-mediated killing of MV3 target cells [4]: 1.73 nM

B12: FAP (4B9) - CD28 (CD28(SA)_Variant 12) 1+1 (bispecific antibody, human IgG1, kappa, L234A L235A)
heavy 1: B11 heavy 1
light 1: B11 light 1
heavy 2: not shown
light 2: DIQMTQSPSSLSASVGDRVTITCRASQNIYVWLNWYQQKPGKAPKLLIYKASNLYSGVPSRFSGSRSGTDFTLTISSLQPEDFATYYCQQGQTYPYTFGQGTKLEIKRTVAAPSVFIFPPSDRKLKSGTASVVCLLNNFYPREAKVQWKVDNALQSGNSQESVTEQDSKDSTYSLSSTLTLSKADYEKHKVYACEVTHQGLSSPVTKSFNRGEC
- EC50 killing (nM), TCB-mediated killing of MV3 target cells [4]: 0.98 nM

B13: FAP (4B9) - CD28 (CD28(SA)_Variant 15) 1+1 (bispecific antibody, human IgG1, kappa, L234A L235A)
heavy 1: B11 heavy 1
light 1: B11 light 1
heavy 2: not shown
light 2: not shown
- EC50 killing (nM), TCB-mediated killing of MV3 target cells [4]: 1.79 nM

B14: FAP (4B9) - CD28 (CD28(SA)_Variant 29) 1+1 (bispecific antibody, human IgG1, kappa, L234A L235A)
heavy 1: B11 heavy 1
light 1: B11 light 1
heavy 2: not shown
light 2: not shown
- EC50 killing (nM), TCB-mediated killing of MV3 target cells [4]: 1.11 nM

Source: patent US20200199234A1 (published 2020)
